# Target: the molecule itself
# Assay: SDS-PAGE under non-reducing conditions; 12.5% acrylamide/bis gel, reduced and non-reduced conditions, Coomassie blue R-250; a second band of >100 kDa only under non-reduced conditions
protein,measurement,value
"cv-lysozyme 3 (enzyme, Crassostrea virginica, cv-lysozyme 3, Crassostrea virginica, tryptic peptide 1-35 of the purified protein; numbers count on: the mature protein; cv-lysozyme 3, tryptic peptide 37-69; cv-lysozyme 3, tryptic peptide 70-88; cv-lysozyme 3, tryptic peptide 89-103; cv-lysozyme 3, tryptic peptide 104-114; cv-lysozyme 3, tryptic peptide 115-122; cv-lysozyme 3, tryptic peptide 123-138; cv-lysozyme 3, tryptic peptide 139-148; …) SDAPCTNSGGVCQDDHLACHNGHYQSGLCTGGAHRRCCLTSASHTGSFSTGIVSQQCLQCICNVESGCKAIGCHFDVNSDSCGYFQIKEGYWHDCGSPGSSWRSCANDLACASKCVQAYMSRYIGFSGCSHSCESYARIHNGGPAGCKHTNTLGYWSHVHAQGCSHNS",binding result,binds
